The results in this text go back to patent publication US20120135931A1.

For data set [1], the target named is human plasma derived thrombin (human), P00734. The data set is described as follows: cell-based or functional assay.

For the molecule “recombinant α-thrombin (based on human α-thrombin sequence)”, the “cleavage of s-variegin by thrombin at 24° C. (RP-HPLC), extent at 360 min” value with s-variegin is on record as 360 min was needed for ~90% of cleavage.

B1: MH18 (peptide)
peptide: MHKTAPPFDFEAIPEEYL
modifications: not checked
B1 registered a percent inhibition of thrombin amidolytic activity at equimolar concentration in data set [1] of 15%.

B2: MH22 (peptide)
peptide: MHKTAPPFDFEAIPEEYLDDES
modifications: not checked
Regarding B2, the percent inhibition of thrombin amidolytic activity at equimolar concentration in data set [1] was determined as 15%.
